Laboratory results taken from US20230073007A1 (OPTOLANE TECHNOLOGIES, published 2023).
No end group written: not given here.

B1: switching binder of SEQ ID NO. 3 (L1) (peptide)
peptide: TYLEWYPQKPGQSPKLLIYK
modifications: also: fluorescence label in fluorescence assays, dye and place not given here
notes: also called PEPTIDE 3
B2: switching binder of SEQ ID NO. 2 (H2) (peptide)
peptide: VYYCAREPTGTGIYFDVWGK
modifications: also: fluorescence label in fluorescence assays, dye and place not given here
notes: also called PEPTIDE 2
B3: switching binder of SEQ ID NO. 4 (L2) (peptide)
peptide: VYYCFQGSHVPFTK
modifications: also: fluorescence label in fluorescence assays, dye and place not given here
notes: also called PEPTIDE 4

Legend:
[1] = molecular target: T1, anti-HRP antibody; experiment: SPR, anti-HRP antibody immobilized on gold chip, peptide at 10 µM
T1 construct: also called anti-HRP antibody 10
Method: (§1) Carbodiimide/N-Hydroxysuccinimide (EDC/NHS, 0.4 M/0.1 M) was mixed in a 1:1 ratio and treated for 10 minutes to activate functional groups. […] Thereafter, it was used after blocking with an ethanolamine concentration of 1 M for 10 minutes. All of the switching binders 100 were treated by incubation for 30 minutes using two concentrations of 10 and 20 μM, respectively. The SPR signal can be measured as an average value by repeating the routine of measuring the SPR signal for 3 minutes while the solution is stopped after flowing 1% Tween-20 washing solution for 1 minute three times.

[2] = molecular target: T1, anti-HRP antibody; experiment: SPR, anti-HRP antibody immobilized on gold chip, peptide at 20 µM
Method: as §1

[3] = molecular target: T2, antibody 10 immobilized by the support 30 (FIG. 7A; antibody not identified); experiment: fluorescence of labeled peptide vs peptide concentration on immobilized antibody (FIG. 7A)
T2 construct: also called the antibody 10

[4] = molecular target: T3, CRP (UniProt P02741 19-224); experiment: fluorescence of labelled peptide (20 µM) on protein coated at 100 µg/mL on a solid support
T3 construct: also called antigen CRP
T3 sequence (looked up): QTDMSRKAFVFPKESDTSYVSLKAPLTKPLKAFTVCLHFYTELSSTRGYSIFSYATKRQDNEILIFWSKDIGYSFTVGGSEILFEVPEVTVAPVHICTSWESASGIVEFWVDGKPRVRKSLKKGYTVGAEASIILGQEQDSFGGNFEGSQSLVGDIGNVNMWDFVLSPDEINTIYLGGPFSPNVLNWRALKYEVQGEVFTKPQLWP

[5] = molecular target: protein A (UniProt P38507 37-477); experiment: as above
[6] = molecular target: B2; experiment: FRET between the labelled peptides L1 and H2, L1 peptide concentration varied (linear axis, 0-10 µM)
[7] = molecular target: T2, antibody 10 immobilized by the support …; experiment: fluorescence of labelled peptide on an antibody fixed on a support, peptide concentration varied (log axis, 0.1-100 µM)
[8] = molecular target: T1, anti-HRP antibody; experiment: fluorescence of labelled peptide (10 µM) on anti-HRP antibody fixed on a solid support, before (A) and after (B) HRP 10 µg/ml; C = fluorescence in the solution
Method: (§2) 1 to 4 were each treated at a concentration of 10 μM (100 μl/well) for 2 hours. At this time, after measuring the fluorescence of the bottom, the antigen HRP as an analyte for an IgG antibody of rabbit was treated at a concentration of 10 μg/ml for 1 hour. […] 1 to 4 were each treated at a concentration of 20 μM (100 μl/well) for 2 hours. At this time, after measuring the fluorescence of the bottom, the antigen HCG as an analyte for an IgG antibody of a mouse was treated at a concentration of 100 μg/ml for 2 hours.

[9] = molecular target: anti-HBsAg antibody; experiment: fluorescence of labelled peptide (20 µM) on anti-HBsAg antibody fixed on a solid support, before (A) and after (B) HBsAg 10 µg/ml; C = fluorescence in the solution
[10] = molecular target: anti-CRP antibody; experiment: fluorescence of labelled peptide (20 µM) on anti-CRP antibody fixed on a solid support, before (A) and after (B) antigen 10 µg/ml (CRP by paragraph 170; paragraph 172 writes HRP); C = fluorescence in the solution
Method: 1 to 4 were each treated at a concentration of 20 μM (100 μl/well) for 2 hours. At this time, after measuring the fluorescence of the bottom (A), the antigen HRP as an analyte for an IgG antibody of rabbit was treated at a concentration of 10 μg/ml for 1 hour. […] 1 to 4 were each treated at a concentration of 20 μM (100 μl/well) for 2 hours. At this time, after measuring the fluorescence of the bottom (A), the antigen HBsAg as an analyte for an IgG antibody of a goat was treated at a concentration of 10 μg/ml for 1 hour.

[11] = molecular target: B1; experiment: FRET between the two peptides (FIG. 5E)
[12] = molecular target: anti-hCG antibody; experiment: fluorescence of labelled peptide (20 µM) on anti-hCG antibody fixed on a solid support, before (A) and after (B) hCG 100 µg/ml; C = fluorescence in the solution
Method: as §2

[13] = molecular target: B3; experiment: FRET between the labelled peptides H1 and L2, H1 peptide concentration varied (linear axis, 0-10 µM)

Binder | SPR signal [1] | SPR signal [2] | Kd [3] | binding result [4] | binding result [5] | binding result [6] | EC50 (read off the curve) [7] | percent printed over the arrow from bar A to bar B (residual bound peptide after antigen; agrees with B as percent of A) [8] | percent printed over the arrow from bar A to bar B (residual bound peptide after antigen; agrees with B as percent of A) [9] | percent printed over the arrow from bar A to bar B (residual bound peptide after antigen; agrees with B as percent of A) [10] | binding result [11] | percent printed over the arrow from bar A to bar B (residual bound peptide after antigen; agrees with B as percent of A) [12] | binding result [13]
B1 | 25.3 RU | 40.4 RU | 6.62 µM | no binding (tested: 20 µM) | no binding (tested: 20 µM) | binds | ~6 µM | 12.8% | 51.4% | 51.4% | – | – | –
B2 | 51.5 RU | 192 RU | 19.4 µM | no binding (tested: 20 µM) | – | – | – | 14.8% | 60.5% | 60.5% | binds | 11.5% | –
SYWIHWVKQRPGQGLEWIGE (also: fluorescence label in fluorescence assays, dye and place not given here, also called PEPTIDE 1) [switching binder of SEQ ID NO. 1 (H1)] | 34.4 RU | 121 RU | 1.42 µM | no binding (tested: 20 µM) | no binding (tested: 20 µM) | – | – | 12.3% | 73.2% | 73.2% | – | 34.4% | binds
B3 | 125 RU | 418 RU | 6.68 µM | no binding (tested: 20 µM) | no binding (tested: 20 µM) | – | – | 25.5% | 55.1% | 55.1% | – | 9.3% | –
